The source of these data is article doi:10.1101/2020.10.08.332312 (bioRxiv, 2020).

The target in the assay is T1, Trs31 (subunit of the recombinant TRAPPIII complex) (S. cerevisiae, UniProt Q03337 1-283).
T1 sequence: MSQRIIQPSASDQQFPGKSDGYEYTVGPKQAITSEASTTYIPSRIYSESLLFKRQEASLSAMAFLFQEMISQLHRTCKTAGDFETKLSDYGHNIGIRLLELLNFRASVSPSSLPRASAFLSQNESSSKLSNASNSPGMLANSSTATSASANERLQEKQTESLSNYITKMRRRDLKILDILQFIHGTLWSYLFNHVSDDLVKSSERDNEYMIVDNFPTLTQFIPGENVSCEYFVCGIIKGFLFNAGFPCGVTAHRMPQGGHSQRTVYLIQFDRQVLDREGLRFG
The experiment in a line: cryo-EM structure.

B1: Ypt1-7xHis (yeast Rab1/Ypt1 with the two C-terminal cysteines replaced by an affinity tag) (natural protein)
chain: not shown
On to B1, for which the binding result was “binds”.
